Test results from the RNAGym collection of RNA variant scans (doi:10.7554/elife.80360).

B1: HDV Ribozyme (parent)
chain: GGCCGGCAUGGUCCCAGCCUCCUCGCUGGCGCCGGCUGGGCAACAUUCCGAGGGGACCGUCCCCUCGGUAAUGGCGAAUGGGACCCA

Variants of: B1
Assay: self-cleavage, relative activity (ratio to wild type); higher = more cleavage; co-transcriptional

Row | Variant | self-cleavage
1 | G11C U23C | 0.277
2 | G11C G54U | 0.289
3 | G11A U23G | 0.13
4 | G11C C49G | 0.0504
5 | G11C G40U | 0.189
6 | G10U C19G | 0.1
7 | G11A C19U | 0.073
8 | G11A C19G | 0.0231
9 | G11C C14G | 0
10 | G11A C61U | 0.529
11 | G11C U20C | 0.0437
12 | G10U G74U | 0.0594
13 | G11U C13U | 0.0674
14 | G11A U69A | 0.166
15 | G11U A56G | 0.378
16 | G11U A56U | 0.391
17 | G10U G29A | 0.0536
18 | G10U G29C | 0.0615
19 | G11C G29U | 0.0225
20 | G11A C26A | 0.878
21 | G11A C26G | 0.99
22 | G10U G34U | 0.323
23 | G10U G34C | 0.189
24 | G11C G50A | 0.271

Row | Variant | self-cleavage
25 | G11C G50U | 0.54
26 | G11A U65C | 0.277
27 | G11A U65G | 0.305
28 | G10U G31A | 0.29
29 | G10U U37C | 0.587
30 | G10U C57U | 0.855
31 | G11C G81C | 0.0519
32 | G11A A83U | 0.203
33 | G11A A83G | 0.0831
34 | G10U C84G | 0.54
35 | G10U C63U | 0.686
36 | G10U C63A | 0.845
37 | G10U C63G | 0.798
38 | G11A C22A | 0.0443
39 | G11A C22U | 0.041
40 | G11C A43G | 0.0536
41 | G10U G28U | 0.109
42 | G10U G28C | 0.0941
43 | G11C G80U | 0.0621
44 | G11C G80C | 0.295
45 | G10U A45C | 0.175
46 | G10U A45G | 1.07
47 | G11A G67C | 0.456
48 | G10U C30A | 0.158

Row | Variant | self-cleavage
49 | G11C U27G | 0.356
50 | G10C G68U | 0.778
51 | G11C C15G | 0.131
52 | G11C C21U | 0.156
53 | G11A A87U | 0.495
54 | G11A C86A | 0.535
55 | G11A C86G | 0.306
56 | G10U C64A | 0.513
57 | G10U C64U | 0.748
58 | G10U G80U | 0.0944
59 | G11A C14G | 0.0346
60 | G10U U65A | 0.665
61 | G11A U46C | 0.166
62 | G11C U72G | 0
63 | G11C U72C | 0.119
64 | G11A G29U | 0.12
65 | G11C G55A | 0.407
66 | G11C G35U | 0.271
67 | G11C G28A | 0.0225
68 | G10U C58U | 0.982
69 | G10U C58A | 0.873
70 | G10C U12C | 0.0978
71 | G11C U46G | 0.133
72 | G11U C15A | 0.155

Row | Variant | self-cleavage
73 | G10U C75G | 0.0563
74 | G11C A51U | 0.426
75 | G10C G80C | 0.104
76 | G10C G80U | 0.219
77 | G11C C26U | 0.895
78 | G11A G35C | 0.0536
79 | G11A G35A | 0.272
80 | G11U A78U | 0.0755
81 | G10U G68C | 0.564
82 | G10U G68A | 0.584
83 | G10U G68U | 0.727
84 | G11A C66A | 0.308
85 | G11A C66U | 0.431
86 | G11A C66G | 0.424
87 | G11C G39U | 0
88 | G11C A42C | 0.0346
89 | G11A A56G | 0.346
90 | G11A C64A | 0.475
91 | G11C G38U | 0.0845
92 | G10U G81C | 0.101
93 | G10U G81U | 0.0791
94 | G11C A45U | 0.0554
95 | G11C C18G | 0
96 | G11C C58G | 0.369

Row | Variant | self-cleavage
97 | G11C C41A | 0.185
98 | G10U G76U | 1.14
99 | G11C C22G | 0.0386
100 | G11A C63A | 0.345
101 | G11A C63G | 0.514
102 | G10U U72C | 0.193
103 | G11U C14U | 0.406
104 | G11U C14G | 0.0692
105 | G11A G68C | 0.256
106 | G11C G82A | 0.262
107 | G11C G52C | 0.266
108 | G11C A83G | 0.123
109 | G11C A83C | 0.158
110 | G10U G11A | 0.267
111 | G10C U20A | 0.0519
112 | G11C U47A | 0.151
113 | G11C A16U | 0.434
114 | G11A C15U | 0.479
115 | G10U C49G | 0.391
116 | G10U C32G | 0.0554
117 | G10U C32A | 0.1
118 | G10C U47A | 0.853
119 | G10C U47G | 1.35
120 | G11U A16U | 0.673

Row | Variant | self-cleavage
121 | G11U A16G | 0.309
122 | G11C G34A | 0.108
123 | G10U A70U | 0.602
124 | G10U A70C | 0.678
125 | G10U G53A | 0.769
126 | G11C C86U | 0.38
127 | G10U G73A | 0.235
128 | G11C C84U | 0.18
129 | G11A G31U | 0.0475
130 | G10C U37C | 1.05
131 | G10C U37A | 0.177
132 | G10U A78U | 0.0554
133 | G11A G55A | 0.499
134 | G10U G40U | 0.842
135 | G10U G40C | 0.313
136 | G10U C18A | 0.0175
137 | G11C A56G | 0.172
138 | G11A G28U | 0.0339
139 | G11A C32A | 0.0231
140 | G11U A42U | 0.0852
141 | G10U G54A | 0.735
142 | G11A C44A | 0.187
143 | G10U U79G | 0.38
144 | G10U C13U | 0.122

Row | Variant | self-cleavage
145 | G11A G59A | 0.38
146 | G11C A78U | 0.0437
147 | G11C A78G | 0.229
148 | G11A G53A | 0.437
149 | G11U A87C | 0.415
150 | G10C G73U | 0.177
151 | G10C G73A | 0.396
152 | G11A A45U | 0.222
153 | G11A A45C | 0.155
154 | G11A A45G | 0.403
155 | G11U A77C | 0.0652
156 | G11U A77U | 0.0906
157 | G10U G59A | 0.636
158 | G10C U65C | 0.831
159 | G11A G82C | 0.0739
160 | G11U A43U | 0.0893
161 | G10U C36A | 0.067
162 | G10U A87C | 0.801
163 | G11A C75U | 0.144
164 | G11C C30A | 0.0804
165 | G11C G59A | 0.434
166 | G11A U47A | 0.249
167 | G11C G74A | 0.117
